# Results: paper PMC3268005 (Journal of the American Chemical Society, 2011)
# B1: Saccharomyces cerevisiae mitochondrial manganese superoxide dismutase (ScMnSOD) (enzyme, UniProt P00447 27-233, looked up)
# chain: KVTLPDLKWDFGALEPYISGQINELHYTKHHQTYVNGFNTAVDQFQELSDLLAKEPSPANARKMIAIQQNIKFHGGGFTNHCLFWENLAPESQGGGEPPTGALAKAIDEQFGSLDELIKLTNTKLAGVQGSGWAFIVKNLSNGGKLDVVQTYNQDTVTGPLVPLVAIDAWEHAYYLQYQNKKADYFKAIWNVVNWKEASRRFDAGKI
# Experiments:
# [1] = target: Candida albicans cytosolic manganese superoxide dismutase (CaMnSODc) (Candida albicans); assay: crystal structure
# [2] = target: Candida albicans cytosolic manganese superoxide dismutase (CaMnSODc) (Candida albicans); assay: SEC
# [3] = target: Candida albicans cytosolic manganese superoxide dismutase (CaMnSODc) (Candida albicans); assay: crystal structure; remark: listed apart in the source
# SEC = target: the molecule itself; assay: SEC
Molecule,stoichiometry N [1],stoichiometry N [2],stoichiometry N [3],stoichiometry N (SEC)
Candida albicans cytosolic manganese superoxide dismutase (CaMnSODc) (enzyme),2,2,4,
B1,,,,4
